T1: rat AMHR2 (rat, UniProt Q62893 18-557)
T1 construct: whole, on cells; also called rat AMHRII
T1 sequence (looked up): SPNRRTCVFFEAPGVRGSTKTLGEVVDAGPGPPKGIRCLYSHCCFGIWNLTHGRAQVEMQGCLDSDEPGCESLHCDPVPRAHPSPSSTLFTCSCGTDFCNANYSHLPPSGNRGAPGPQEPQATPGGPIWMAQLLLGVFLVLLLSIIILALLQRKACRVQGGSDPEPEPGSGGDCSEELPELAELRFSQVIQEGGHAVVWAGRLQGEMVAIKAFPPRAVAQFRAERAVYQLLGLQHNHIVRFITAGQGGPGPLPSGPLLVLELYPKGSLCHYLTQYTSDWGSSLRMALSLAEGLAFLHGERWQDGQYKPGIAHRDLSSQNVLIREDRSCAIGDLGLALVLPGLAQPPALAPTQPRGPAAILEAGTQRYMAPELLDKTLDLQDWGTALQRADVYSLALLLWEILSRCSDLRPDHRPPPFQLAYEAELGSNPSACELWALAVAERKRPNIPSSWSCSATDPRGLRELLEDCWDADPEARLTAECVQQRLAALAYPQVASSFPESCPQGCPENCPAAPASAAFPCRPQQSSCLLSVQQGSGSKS

T2: human AMHRII (anti-Mullerian hormone receptor type 2) (human, UniProt Q16671 18-573)
T2 construct: whole, on cells; also called AMHR2; human AMHR2
T2 sequence (looked up): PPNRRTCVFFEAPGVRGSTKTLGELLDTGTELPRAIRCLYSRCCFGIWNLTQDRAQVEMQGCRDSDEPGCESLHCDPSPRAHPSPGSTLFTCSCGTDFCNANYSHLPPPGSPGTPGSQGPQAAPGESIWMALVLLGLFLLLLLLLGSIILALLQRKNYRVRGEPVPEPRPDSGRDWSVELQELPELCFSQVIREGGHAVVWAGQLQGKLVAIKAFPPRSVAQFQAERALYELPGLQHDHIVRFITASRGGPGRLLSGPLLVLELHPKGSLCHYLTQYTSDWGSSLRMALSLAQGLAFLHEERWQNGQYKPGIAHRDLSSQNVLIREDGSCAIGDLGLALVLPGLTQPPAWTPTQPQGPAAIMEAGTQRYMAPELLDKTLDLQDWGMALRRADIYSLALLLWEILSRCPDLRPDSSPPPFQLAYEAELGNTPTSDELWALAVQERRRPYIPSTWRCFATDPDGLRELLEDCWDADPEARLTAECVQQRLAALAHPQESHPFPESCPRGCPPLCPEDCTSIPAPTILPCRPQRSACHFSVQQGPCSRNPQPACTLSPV

T3: mouse AMHR2 (mouse, UniProt Q8K592 16-568)
T3 construct: whole, on cells; also called mouse AMHRII
T3 sequence (looked up): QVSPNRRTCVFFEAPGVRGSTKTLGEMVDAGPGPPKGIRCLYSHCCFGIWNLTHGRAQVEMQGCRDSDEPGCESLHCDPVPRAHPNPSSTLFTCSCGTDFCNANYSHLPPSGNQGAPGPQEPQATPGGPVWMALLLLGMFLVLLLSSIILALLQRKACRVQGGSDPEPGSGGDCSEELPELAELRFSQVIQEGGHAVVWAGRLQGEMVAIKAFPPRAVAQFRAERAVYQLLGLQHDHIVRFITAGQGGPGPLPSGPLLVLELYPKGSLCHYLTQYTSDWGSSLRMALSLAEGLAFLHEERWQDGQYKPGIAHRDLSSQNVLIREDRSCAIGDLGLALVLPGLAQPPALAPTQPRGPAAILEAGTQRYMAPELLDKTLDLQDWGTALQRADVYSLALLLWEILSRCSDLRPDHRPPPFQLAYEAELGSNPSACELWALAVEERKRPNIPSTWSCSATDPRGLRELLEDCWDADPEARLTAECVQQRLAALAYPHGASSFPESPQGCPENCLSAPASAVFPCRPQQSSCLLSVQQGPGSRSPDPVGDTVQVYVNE


Assays:
rat AMHR2 = biological target: T1, rat AMHR2; test: FACS on CHO-K1 cells over-expressing rat AMHR2
Experimental: (§1) To evaluate these antibodies' cross reactivities to cyno, rat and mouse AMHR2, CHO-K1 cells over-expressing cyno, rat and mouse AMHR2, respectively, were harvested from flasks. 100 μl of 1×10⁶ cells/ml of cells were incubated with primary antibodies in 4-fold serial dilutions starting from 300 nM to 0.018 nM for 30 minutes on ice. After being washed with 200 μl of FACS buffer twice, cells were incubated with secondary antibody for 30 minutes on ice. Cells were washed with 200 μl of FACS buffer twice and analyzed by FACS.

[1] = biological target: T2, human AMHRII (anti-Mullerian hormone …); test: FACS on Rko cells over-expressing human AMHR2
Experimental: as §1, with “Rko” for “To evaluate these antibodies' cross reactivities to cyno, rat and mouse AMHR2, CHO-K1”, “AMHR2” for “cyno, rat and mouse AMHR2, respectively,”, “primary PTM” for “primary”, “3-fold” for “4-fold”, “0.001” for “0.018”

[2] = biological target: T2, human AMHRII (anti-Mullerian hormone …); test: FACS on CHO-K1 cells over-expressing human AMHR2
Experimental: (§2) CHO-K1 cells over-expressed AMHR2 were harvested from flasks. 100 μl of 1×10⁶ cells/ml of cells were incubated with the humanized antibodies in 3-fold serial dilutions starting from 300 nM to 0.001 nM for 30 minutes on ice. After being washed with 200 μl of FACS buffer twice, cells were incubated with secondary antibody for 30 minutes on ice. Cells were washed with 200 μl of FACS buffer twice and analyzed by FACS.

mouse AMHR2 = biological target: T3, mouse AMHR2; test: FACS on CHO-K1 cells over-expressing mouse AMHR2
Experimental: as §1

[3] = biological target: T2, human AMHRII (anti-Mullerian hormone …); test: FACS on CHO-K1 cells over-expressing human AMHR2; remark: listed apart in the source
Experimental: as §2

[4] = biological target: T2, human AMHRII (anti-Mullerian hormone …); test: FACS on CHO-K1 cells over-expressing human AMHR2; remark: listed apart in the source
Experimental: as §2

[5] = biological target: T2, human AMHRII (anti-Mullerian hormone …); test: FACS on Rko cells over-expressing human AMHR2; remark: listed apart in the source
Experimental: Similarly, the binding of these antibodies was tested with Rko cells that over-expressed AMHR2. 100 μl of 1×10⁶ cells/ml of cells were incubated with the antibodies in 3-fold serial dilutions starting from 300 nM to 0.002 nM for 30 minutes on ice. After being washed with 200 μl of FACS buffer twice, cells were incubated with secondary antibody for 30 minutes on ice. Cells were washed with 200 μl of FACS buffer twice and analyzed by FACS.

[6] = biological target: T2, human AMHRII (anti-Mullerian hormone …); test: FACS on CHO-K1 cells over-expressing human AMHR2; remark: listed apart in the source
Experimental: CHO-K1 cells that over-expressed AMHR2 were harvested from flasks. 100 μl of 1×10⁶ cells/ml of cells were incubated with primary chimeric antibodies (or with positive reference antibody Ref.Ab) in 3-fold serial dilutions starting from 300 nM to 0.002 nM for 30 minutes on ice. After being washed with 200 μl of FACS buffer twice, cells were incubated with secondary antibody for 30 minutes on ice. Cells were washed with 200 μl of FACS buffer twice and analyzed by FACS.

[7] = biological target: T2, human AMHRII (anti-Mullerian hormone …); test: cell-based or functional assay
[8] = biological target: T2, human AMHRII (anti-Mullerian hormone …); test: FACS on CHO-K1 cells over-expressing human AMHR2; remark: listed apart in the source
Experimental: as §2

| binding result (rat AMHR2) | EC50 [1] | Top (MFI) [1] | EC50 [2] | Top (MFI) [2] | binding result (mouse AMHR2) | EC50 [3] | Top (MFI) [3] | EC50 [4] | Top (MFI) [4] | EC50 [5] | Top (MFI) [5] | EC50 [6] | Top (MFI) [6] | ADCC reporter bioassay, EC50 [7] | ADCC reporter bioassay, Top (MFI) [7] | EC50 [8] | Top (MFI) [8] | Binder |
| --- | --- | --- | --- | --- | --- | --- | --- | --- | --- | --- | --- | --- | --- | --- | --- | --- | --- | --- |
| binds | 0.528 nM | 16200 MFI | 0.74 nM | 65400 MFI | binds | – | – | – | – | – | – | – | – | – | – | – | – | 108F3D1E9 H1L1 hIgG1 (antibody, V domains shown, Humanized, PTM de-risked VH, human IgG1; also called 108F3D1E9 H1L1 hlgG1) VH: QLQLQESGPGLVKPSETLSLTCTVSGYSITSDFAWNWIRQPPGKGLEWIGYISFSGSTSYNPSLKSRVTISVDTSKNQFSLKLSSVTAADTAVYYCARSRYSWFAYWGQGTLVTVSS VL: DIQMTQSPSSLSASVGDRVTITCRASESVDTYGNSFMHWYQQKPGKAPKLLIYRASNLESGVPSRFSGSGSGTDFTLTISSLQPEDFATYYCQQSNEDPYTFGGGTKVEIK |
| binds | 0.695 nM | 18900 MFI | 1.7 nM | 53000 MFI | binds | – | – | – | – | – | – | – | – | – | – | – | – | 94C4C3 H1L1 hIgG1 (antibody, V domains shown, Humanized, human IgG1; also called 94C4C3 H1L1 hlgG1) VH: QLQLQESGPGLVKPSETLSLTCTVSGYSITSDYAWNWIRQPPGKGLEWIGYISYSGSISYNPSLKSRVTISVDTSKNQFSLKLSSVTAADTAVYYCARSRYSWFDYWGQGTLVTVSS VL: EIVLTQSPGTLSLSPGERATLSCSASESVDTYGNSFMHWYQQKPGQAPRLLIYRASSLESGIPDRFSGSGSGTDFTLTISRLEPEDFAVYYCQQSNEDPYTFGGGTKVEIK |
| – | 0.657 nM | 18600 MFI | 0.881 nM | 26200 MFI | – | 0.881 nM | 26200 MFI | 0.88 nM | 35200 MFI | 0.57 nM | 8360 MFI | 1.16 nM | 122000 MFI | 0.27 nM | 14400 MFI | 0.88 nM | 35200 MFI | xi31D9B3 hIgG1 (antibody, V domains shown, Murine variable domains in human chimeric format, human IgG1; also called xi31D9B3 hlgG1; 31D9B3 hlgG1) VH: QVKLLQSGAALVKPGASVKMSCKASGYTFTDYWVSWVKQSHGKSLEWIGEIYPKNGVSNFNEKFKGKATLTVDKSTSTAYMELRRLTSEDSAIFYCTRQRDYWGQGVMVTVSS VL: DVVLTQTPGSLSVTLGDQASISCRSSQSLEYGDGYTYLEWYLQKPGQSPQLLIYGVSNRFSGVPDRFIGSGSGTDFTLKISRVEPEDLGVYYCFQATHDPNTFGAGTKLELK |

| Binder | binding result (rat AMHR2) | EC50 [1] | Top (MFI) [1] | EC50 [2] | Top (MFI) [2] | binding result (mouse AMHR2) | EC50 [3] | Top (MFI) [3] | EC50 [4] | Top (MFI) [4] | EC50 [5] | Top (MFI) [5] | EC50 [6] | Top (MFI) [6] | ADCC reporter bioassay, EC50 [7] | ADCC reporter bioassay, Top (MFI) [7] | EC50 [8] | Top (MFI) [8] |
| --- | --- | --- | --- | --- | --- | --- | --- | --- | --- | --- | --- | --- | --- | --- | --- | --- | --- | --- |
| 31D9B3 VH1.3-VL2.2 hIgG1 (antibody, V domains shown, Humanized, PTM de-risked, human IgG1; also called 31D9B3 VH1.3-VL2.2 hlgG1) VH: QVQLVQSGAEVKKPGASVKVSCKASGYTFTDYWVSWVRQAPGQGLEWMGEIYPKNQVSNFNEKFKGRVTMTTDTSTSTAYMELRSLRSDDTAVYYCARQRDYWGQGTLVTVSS VL: DVVMTQSPLSLPVTLGQPASISCRSSQSLEYGDRYTYLEWYLQRPGQSPRLLIYGVSNRFSGVPDRFSGSGSGTDFTLKISRVEAEDVGVYYCFQATHDPNTFGQGTKLEIK | no binding (tested: 300 nM highest concentration) | 0.783 nM | 16400 MFI | – | – | no binding (tested: 300 nM highest concentration) | 0.703 nM | 24100 MFI | – | – | – | – | – | – | – | – | – | – |
